In paper PMC10019796:

Molecular target: mtDsbC-SARS-CoV-2 RBD Alpha variant (B.1.1.7) fusion protein (SARS-CoV-2) (UniProt P0DTC2)
Test: BLI; biotinylated mtDsbC-RBD (20 µg/mL) immobilised on streptavidin (SA) biosensors, Fabs as analytes at three nanomolar concentrations; Octet RED384, 30 °C, 1000 rpm, 1 × PBS Kinetics Buffer; 1:1 interaction model, global fit

Substance REGN10987 (L93Q) Fab has a Kd of over 1000 nM.
